The record followed here is US20040152079A1.

In this assay the target is PMN receptor for mini TyrRS (on human PMNs) (human). Description: competition with ^125I-mini TyrRS on human PMNs (FIG. 10).

As to “S. cerevisiae TyrRS (from UniProt P36421 1-394) (enzyme)”, the fold of the dissociation constant against human mini TyrRS is less than 200 fold.
